{"source": "patent US20220332804A1", "about": "(CSL INNOVATION, published 2022)", "assay_in_all_cases": "SPR, antibody captured, C2 as analyte;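 note: biacore SPR at 37 °C, anti-C2 mAbs captured via goat anti-human IgG on CM5 chips, double-referenced sensorgrams fit to a 1:1 kinetic or steady-state model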", "key": {"human C2 P723A": {"target": "T1, human C2 P723A (human, UniProt P06681 21-752)", "T1 sequence": "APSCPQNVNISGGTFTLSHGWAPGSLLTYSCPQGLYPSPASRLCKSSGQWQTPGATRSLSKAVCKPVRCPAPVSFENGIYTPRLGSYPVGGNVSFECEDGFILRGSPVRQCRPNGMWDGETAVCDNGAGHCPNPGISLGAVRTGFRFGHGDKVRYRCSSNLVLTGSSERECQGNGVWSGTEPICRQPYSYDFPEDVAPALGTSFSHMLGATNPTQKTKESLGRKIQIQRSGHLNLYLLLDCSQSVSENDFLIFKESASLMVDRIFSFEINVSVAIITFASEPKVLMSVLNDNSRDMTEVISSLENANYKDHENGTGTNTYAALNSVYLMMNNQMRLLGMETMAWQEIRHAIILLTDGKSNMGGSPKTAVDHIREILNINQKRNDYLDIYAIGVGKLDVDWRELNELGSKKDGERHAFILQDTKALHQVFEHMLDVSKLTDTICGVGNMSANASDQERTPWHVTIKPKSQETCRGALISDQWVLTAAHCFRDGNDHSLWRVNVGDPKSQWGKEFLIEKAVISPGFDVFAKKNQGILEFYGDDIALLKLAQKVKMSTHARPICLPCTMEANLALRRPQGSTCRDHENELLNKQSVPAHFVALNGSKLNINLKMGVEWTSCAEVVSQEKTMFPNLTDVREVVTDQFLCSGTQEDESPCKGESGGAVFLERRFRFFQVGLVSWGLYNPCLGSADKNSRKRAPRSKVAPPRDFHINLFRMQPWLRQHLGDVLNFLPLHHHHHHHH"}, "human C2 E324A": {"target": "T2, human C2 E324A (human, UniProt P06681 21-752)", "T2 sequence": "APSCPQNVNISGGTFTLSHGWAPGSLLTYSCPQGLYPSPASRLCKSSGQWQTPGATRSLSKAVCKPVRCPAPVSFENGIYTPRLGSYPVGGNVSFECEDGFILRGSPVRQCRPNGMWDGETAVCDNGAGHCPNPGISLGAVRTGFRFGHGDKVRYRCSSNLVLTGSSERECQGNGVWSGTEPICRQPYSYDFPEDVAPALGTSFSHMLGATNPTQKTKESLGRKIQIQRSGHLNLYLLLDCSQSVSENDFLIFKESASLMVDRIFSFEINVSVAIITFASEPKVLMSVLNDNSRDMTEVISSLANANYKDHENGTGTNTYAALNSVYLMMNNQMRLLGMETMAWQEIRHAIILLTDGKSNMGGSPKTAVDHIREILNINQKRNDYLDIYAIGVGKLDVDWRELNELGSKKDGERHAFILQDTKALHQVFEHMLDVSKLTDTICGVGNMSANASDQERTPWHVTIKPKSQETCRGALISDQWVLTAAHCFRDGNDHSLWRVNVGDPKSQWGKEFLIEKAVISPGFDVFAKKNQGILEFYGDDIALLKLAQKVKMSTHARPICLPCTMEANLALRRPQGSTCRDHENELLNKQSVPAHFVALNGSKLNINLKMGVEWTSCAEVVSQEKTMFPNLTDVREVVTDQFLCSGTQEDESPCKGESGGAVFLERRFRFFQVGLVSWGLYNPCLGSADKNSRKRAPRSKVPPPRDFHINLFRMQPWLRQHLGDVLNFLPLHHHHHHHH"}, "human C2 A436S": {"target": "T3, human C2 A436S (human, UniProt P06681 21-752)", "T3 sequence": "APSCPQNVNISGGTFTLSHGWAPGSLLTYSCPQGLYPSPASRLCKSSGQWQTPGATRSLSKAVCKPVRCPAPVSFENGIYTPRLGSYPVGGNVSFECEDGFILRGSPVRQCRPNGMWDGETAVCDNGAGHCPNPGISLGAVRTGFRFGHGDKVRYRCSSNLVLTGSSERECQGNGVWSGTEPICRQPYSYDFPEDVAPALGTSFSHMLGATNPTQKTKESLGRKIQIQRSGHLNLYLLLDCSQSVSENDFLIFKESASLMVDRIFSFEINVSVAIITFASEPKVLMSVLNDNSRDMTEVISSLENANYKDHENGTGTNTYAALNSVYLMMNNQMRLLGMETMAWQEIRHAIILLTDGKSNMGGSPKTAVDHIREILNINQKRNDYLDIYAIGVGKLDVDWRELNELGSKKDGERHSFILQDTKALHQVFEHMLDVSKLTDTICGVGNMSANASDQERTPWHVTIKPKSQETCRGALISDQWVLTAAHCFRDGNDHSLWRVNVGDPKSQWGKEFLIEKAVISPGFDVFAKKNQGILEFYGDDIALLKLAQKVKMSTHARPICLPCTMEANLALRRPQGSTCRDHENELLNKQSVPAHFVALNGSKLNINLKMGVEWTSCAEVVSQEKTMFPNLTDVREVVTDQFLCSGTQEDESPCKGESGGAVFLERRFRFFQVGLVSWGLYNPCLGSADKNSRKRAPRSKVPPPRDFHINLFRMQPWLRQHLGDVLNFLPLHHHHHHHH"}, "human C2 G466A": {"target": "T4, human C2 G466A (human, UniProt P06681 21-752)", "T4 sequence": "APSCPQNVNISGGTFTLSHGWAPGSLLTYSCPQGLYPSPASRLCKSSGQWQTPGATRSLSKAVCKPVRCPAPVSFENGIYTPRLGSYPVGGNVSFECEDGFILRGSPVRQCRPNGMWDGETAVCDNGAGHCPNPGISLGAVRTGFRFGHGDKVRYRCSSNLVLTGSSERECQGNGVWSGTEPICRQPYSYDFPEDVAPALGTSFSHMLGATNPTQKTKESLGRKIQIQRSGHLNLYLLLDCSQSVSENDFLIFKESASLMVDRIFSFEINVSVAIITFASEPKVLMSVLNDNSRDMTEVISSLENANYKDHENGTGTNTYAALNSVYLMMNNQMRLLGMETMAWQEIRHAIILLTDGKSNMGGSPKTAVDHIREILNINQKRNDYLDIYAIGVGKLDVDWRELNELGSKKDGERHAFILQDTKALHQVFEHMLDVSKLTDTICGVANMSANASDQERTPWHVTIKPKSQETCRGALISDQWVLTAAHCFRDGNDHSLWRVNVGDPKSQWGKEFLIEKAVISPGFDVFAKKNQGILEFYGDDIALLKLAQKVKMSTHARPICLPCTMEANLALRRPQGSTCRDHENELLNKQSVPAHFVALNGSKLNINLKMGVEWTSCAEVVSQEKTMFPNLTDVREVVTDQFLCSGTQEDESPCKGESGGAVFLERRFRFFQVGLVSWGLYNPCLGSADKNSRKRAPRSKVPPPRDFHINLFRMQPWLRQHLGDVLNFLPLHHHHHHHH"}}, "data": [{"binder": "RF16-226 (antibody, human IgG4 S228P, lambda, pH-dependent anti-C2 antibody from a phage display library; also called WT) heavy: not shown light: SYELTQPPSVSVSPGQTARITCSGDALTSKYVAWYQQKSGLAPLLVIYEDTRRPSGIPAKFSGSSSGSVATLTISGAHGDDEADYYCYSTDASGHQRVFGGGTKLTVLSQPKAAPSVTLFPPSSEELQANKATLVCLISDFYPGAVTVAWKADGSPVKAGVETTKPSKQSNNKYAASSYLSLTPEQWKSHRSYSCQVTHEGSTVEKTVAPTECS", "values": [{"measurement": "Kd", "setting": "human C2 P723A", "value": 122, "unit": "nM"}, {"measurement": "Kd", "setting": "human C2 E324A", "value": 12.2, "unit": "nM"}, {"measurement": "Kd", "setting": "human C2 A436S", "value": 6.2, "unit": "nM"}, {"measurement": "Kd", "setting": "human C2 G466A", "value": 32.4, "unit": "nM"}]}]}
